Laboratory results published in patent publication US20210062165A1.

Experiments:
[1] = biological target: FUS^N-FusionRed-Cry2olig-VioE; test: cell-based or functional assay
[2] = biological target: FUS^N-Citrine-PixE-VioE; test: cell-based or functional assay

Chain of FUS^N-FusionRed-Cry2olig-VioE (Q96524 other isoform, or with tags, fused parts or gaps): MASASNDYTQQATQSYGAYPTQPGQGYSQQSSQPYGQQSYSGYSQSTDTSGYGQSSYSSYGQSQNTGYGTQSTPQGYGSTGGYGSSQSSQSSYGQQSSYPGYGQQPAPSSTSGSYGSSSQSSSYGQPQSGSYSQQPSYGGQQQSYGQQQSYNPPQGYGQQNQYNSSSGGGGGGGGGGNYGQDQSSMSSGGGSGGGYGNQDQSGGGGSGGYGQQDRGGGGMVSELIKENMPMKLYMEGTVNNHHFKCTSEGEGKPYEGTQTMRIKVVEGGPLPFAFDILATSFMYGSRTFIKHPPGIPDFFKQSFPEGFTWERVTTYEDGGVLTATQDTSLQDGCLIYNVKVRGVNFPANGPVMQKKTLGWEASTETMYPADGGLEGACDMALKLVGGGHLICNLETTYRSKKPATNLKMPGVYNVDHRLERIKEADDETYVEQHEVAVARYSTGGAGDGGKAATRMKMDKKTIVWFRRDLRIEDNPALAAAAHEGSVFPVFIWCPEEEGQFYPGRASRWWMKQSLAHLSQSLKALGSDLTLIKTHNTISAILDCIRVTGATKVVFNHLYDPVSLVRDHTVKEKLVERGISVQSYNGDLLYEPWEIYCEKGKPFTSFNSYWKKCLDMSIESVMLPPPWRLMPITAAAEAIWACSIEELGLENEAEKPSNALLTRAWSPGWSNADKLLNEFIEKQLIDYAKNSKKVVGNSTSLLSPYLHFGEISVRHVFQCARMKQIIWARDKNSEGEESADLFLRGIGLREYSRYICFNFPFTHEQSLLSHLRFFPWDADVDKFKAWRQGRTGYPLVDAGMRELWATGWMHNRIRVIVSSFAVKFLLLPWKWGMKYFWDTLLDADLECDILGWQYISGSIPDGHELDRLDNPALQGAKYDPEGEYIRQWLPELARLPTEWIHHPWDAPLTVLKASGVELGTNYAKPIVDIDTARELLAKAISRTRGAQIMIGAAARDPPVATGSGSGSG
Chain of FUS^N-Citrine-Cry2olig-VioC (P35637 1-214, tags or fused parts left off): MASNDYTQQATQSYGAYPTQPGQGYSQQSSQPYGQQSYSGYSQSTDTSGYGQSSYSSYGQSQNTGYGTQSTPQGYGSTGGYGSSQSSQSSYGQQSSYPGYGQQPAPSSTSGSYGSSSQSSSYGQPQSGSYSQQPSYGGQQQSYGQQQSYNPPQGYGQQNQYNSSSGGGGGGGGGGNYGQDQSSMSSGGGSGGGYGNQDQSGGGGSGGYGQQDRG
Chain of VioC-FUS^N-Citrine-Cry2olig (Q9S3U9 1-429, tags or fused parts left off): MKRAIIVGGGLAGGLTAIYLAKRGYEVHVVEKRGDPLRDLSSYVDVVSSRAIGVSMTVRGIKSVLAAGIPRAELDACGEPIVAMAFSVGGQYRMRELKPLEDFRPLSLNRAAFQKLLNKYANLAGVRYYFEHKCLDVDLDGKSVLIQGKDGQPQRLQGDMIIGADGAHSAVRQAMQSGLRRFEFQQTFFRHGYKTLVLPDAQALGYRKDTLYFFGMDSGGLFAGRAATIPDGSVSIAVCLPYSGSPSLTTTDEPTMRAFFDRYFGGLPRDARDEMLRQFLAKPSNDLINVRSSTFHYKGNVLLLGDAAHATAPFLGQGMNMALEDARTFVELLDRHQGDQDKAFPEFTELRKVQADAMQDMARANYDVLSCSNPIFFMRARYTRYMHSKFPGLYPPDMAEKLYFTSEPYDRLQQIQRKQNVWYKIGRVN

## FUS^N-Citrine-Cry2olig-VioC (from UniProt P35637 1-214; Q96524 1-498; Q9S3U9 1-429)
[1]
  deoxyviolacein production under continuous blue light relative to dark (HPLC, strain YNS34): 2 fold

## FUS^N-FusionRed-PixD-VioC (from UniProt Q9S3U9 1-429)
[2]
  change in deoxyviolacein production from light to dark (HPLC, strain YEZ257, [Zeo]max 1,200 mg/L): 6.1 fold
  change in deoxyviolacein-to-PDV ratio from light to dark (HPLC, strain YEZ257, [Zeo]max 1,200 mg/L): 18.4 fold

## VioC-FUS^N-Citrine-Cry2olig (from UniProt Q9S3U9 1-429; P35637 1-214; Q96524 1-498)
[1]
  deoxyviolacein production under continuous blue light relative to dark (HPLC, strain YNS36): 2 fold
